Results published in the supplement of paper PMC7877785.
± gives the uncertainty stated by the source.

Test: self-splicing fitness, log relative to wild type (ln ratio); higher = more splicing; Tetrahymena group I intron in knt gene, E. coli kanamycin selection, DiMSum; sequences stand for … in CUCUCU…GGAGGGAAAAGUUAUCAGGCAUGCACCUGGUAGCUAGUCUUUAAACCAAUAGAUUGCAUCGGUUUAAAAGGCAAGACCGUCAAAUUGCGGGAAAGGGGUCAACAGCCGUUCAGUACCAAGUCUCAGGGGAAACUUUGAGAUGGCCUUGCAAAGGGUAUGGUAAUAAGCUGACGGACAUGGUCCUAACCACGCAGCCAAGUCCUAAGUCAACAGAUCUUCUGUUGAUAUGGAUGCAGUUCACAGACUAAAUGUCGGUCGGGGAAGAUGUAUUCUUCUCAUAAGAUAUAGUCGGACCUCUCCUUAAUGGGAGCUAGCGGAUGAAGUGAUGCAACACUGGAGCCGCUGGGAACUAAUUUGUAUGCGAAAGUAUAUUGAUUAGUUUUGGAGUACUCGUGGUCG
Method in brief: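 The eight P1ex-region nucleotides of an intron in the knt kanamycin-resistance gene on pET-22b(+) were all randomised and the library put into E. coli BL21(DE3). Six replicate transformations were grown overnight at 37°C or 30°C on LB agar with or without 25 μg/mL kanamycin, together with 100 μg/mL carbenicillin, 50 μM IPTG and 0.2% rhamnose. Colonies were pooled and amplicon-sequenced on an Illumina HiSeq 2500. Fitness from DiMSum is the error-weighted combination of wild-type-normalised replicate fold changes, kanamycin over none.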

Sequence | self-splicing fitness (ln) (30 °C) | self-splicing fitness (ln) (37 °C)
AAAGAGCAAUAUUACGUUUU | -2.46 ± 0.11 | -1.91 ± 0.12
GAUUAGCAAUAUUACGGGAC | -2.53 ± 0.18 | -1.53 ± 0.14
AUACAGCAAUAUUACGUUGU | -2.77 ± 0.098 | -2.81 ± 0.13
GGAUAGCAAUAUUACGGGAU | -3.03 ± 0.27 | -2.39 ± 0.21
UGUGAGCAAUAUUACGUUGC |  | -1.57 ± 0.37
GUGAAGCAAUAUUACGACCA | -0.647 ± 0.18 | 0.84 ± 0.19
GCCAAGCAAUAUUACGACAA | -3.73 ± 0.38 | -3.04 ± 0.26
UGGGAGCAAUAUUACGUGGC | -4.39 ± 0.39 | -1.68 ± 0.23
AGCAAGCAAUAUUACGAGCU | -3.42 ± 0.17 | -2.15 ± 0.21
AAGUAGCAAUAUUACGCCCC | -1.1 ± 0.19 | -1.22 ± 0.22
GGCGAGCAAUAUUACGAGAG | -3.79 ± 0.39 | -2.54 ± 0.33
AUGCAGCAAUAUUACGAAAG | -2.87 ± 0.23 | -3.15 ± 0.4
UCUGAGCAAUAUUACGUUAU | -3.6 ± 0.31 | -3.68 ± 0.42
AAAGAGCAAUAUUACGUCAA | -3.31 ± 0.18 | -2.61 ± 0.19
CAGCAGCAAUAUUACGUCCC | -2.38 ± 0.47 | 
GCAUAGCAAUAUUACGGCAU | -1.21 ± 0.096 | -1.19 ± 0.083
GCCCAGCAAUAUUACGAACC | -1.02 ± 0.15 | 0.156 ± 0.15
UGCAAGCAAUAUUACGGAUC | -3.09 ± 0.17 | -2.38 ± 0.16
UAUCAGCAAUAUUACGCCAG | -0.548 ± 0.15 | -0.584 ± 0.18
UACCAGCAAUAUUACGAGGA | -1.63 ± 0.14 | -1.24 ± 0.12
CCCAAGCAAUAUUACGCUGG | -3.55 ± 0.19 | -2.52 ± 0.19
GAAUAGCAAUAUUACGUAUC | -1.7 ± 0.13 | -1.75 ± 0.2
GAAUAGCAAUAUUACGCUGG | -2.17 ± 0.33 | -0.278 ± 0.24
ACGAAGCAAUAUUACGAGGC | -3.62 ± 0.21 | -1.81 ± 0.16
GAACAGCAAUAUUACGAAUU | -1.15 ± 0.088 | -0.293 ± 0.1

Sequence | self-splicing fitness (ln) (30 °C) | self-splicing fitness (ln) (37 °C)
UGGCAGCAAUAUUACGCUUG | -2.46 ± 0.12 | -0.728 ± 0.15
GUUUAGCAAUAUUACGUUUC | -2.17 ± 0.21 | -2.07 ± 0.23
UCGGAGCAAUAUUACGUUGG | -2.09 ± 0.17 | -1.77 ± 0.23
CAUUAGCAAUAUUACGUGAC | -3.18 ± 0.26 | -1.58 ± 0.33
AGAUAGCAAUAUUACGUGUU | -2.97 ± 0.13 | -1.1 ± 0.11
AAGUAGCAAUAUUACGCAAG | -1.81 ± 0.17 | 0.657 ± 0.18
UAUUAGCAAUAUUACGUACC | -3.37 ± 0.37 | -1.26 ± 0.35
GACAAGCAAUAUUACGCCCG | -1.26 ± 0.17 | -0.702 ± 0.37
CGACAGCAAUAUUACGGCUU | -3.12 ± 0.16 | -1.6 ± 0.14
AGCAAGCAAUAUUACGAAGA | -3.3 ± 0.31 | -1.74 ± 0.15
CCGCAGCAAUAUUACGGAAG | -3.05 ± 0.12 | -1.33 ± 0.11
UUCCAGCAAUAUUACGACAA | -0.945 ± 0.13 | 0.128 ± 0.16
CGAGAGCAAUAUUACGGGAU | -2.56 ± 0.13 | -2.53 ± 0.23
AUUGAGCAAUAUUACGAGAC |  | -0.883 ± 0.45
GGCCAGCAAUAUUACGUCUG | -3.07 ± 0.24 | -2.93 ± 0.32
AAUGAGCAAUAUUACGCCAG | -3.99 ± 0.3 | -2.87 ± 0.47
UACCAGCAAUAUUACGCUUA | -0.566 ± 0.056 | -0.478 ± 0.07
CAUGAGCAAUAUUACGGCAG | -0.481 ± 0.086 | -0.96 ± 0.14
GGCAAGCAAUAUUACGGGCC | -2.85 ± 0.39 | 
AGGCAGCAAUAUUACGCAGU | -3.36 ± 0.2 | -1.55 ± 0.19
GCCGAGCAAUAUUACGUUGG | -3.55 ± 0.24 | -2.18 ± 0.27
UUAUAGCAAUAUUACGUCUG | -0.366 ± 0.11 | -0.511 ± 0.13
GUGUAGCAAUAUUACGGUGC | -2.8 ± 0.21 | -2.18 ± 0.18
AGUGAGCAAUAUUACGCCCG | -2.27 ± 0.4 | 
UACUAGCAAUAUUACGCGCU | -3.19 ± 0.18 | -1.8 ± 0.15

Sequence | self-splicing fitness (ln) (30 °C) | self-splicing fitness (ln) (37 °C)
UCCCAGCAAUAUUACGCUGA | -2.26 ± 0.12 | -3.02 ± 0.21
ACCAAGCAAUAUUACGAGCU | -1.62 ± 0.056 | -0.791 ± 0.072
UCGGAGCAAUAUUACGAACA | -2.3 ± 0.21 | -1.25 ± 0.21
ACUCAGCAAUAUUACGGGGG | -1.68 ± 0.11 | -1.45 ± 0.14
AAAUAGCAAUAUUACGGCGG | -1.48 ± 0.086 | -0.335 ± 0.1
UAUUAGCAAUAUUACGCGCA | -0.12 ± 0.13 | 0.163 ± 0.18
UACAAGCAAUAUUACGAUCA | -0.336 ± 0.079 | 0.387 ± 0.11
CCUCAGCAAUAUUACGCACG | -2.46 ± 0.17 | -1.06 ± 0.18
UCGCAGCAAUAUUACGGUCA | -0.966 ± 0.1 | 0.119 ± 0.11
GCCGAGCAAUAUUACGUGUA | -1.32 ± 0.071 | -0.983 ± 0.078
UACGAGCAAUAUUACGCCAG | -3.79 ± 0.3 | -2.88 ± 0.3
AUAGAGCAAUAUUACGAGGU | -3.58 ± 0.44 | -2.94 ± 0.27
CCAUAGCAAUAUUACGGCCC | -1.72 ± 0.22 | 
CGCAAGCAAUAUUACGGCGA | -1.91 ± 0.24 | -0.653 ± 0.17
CAUAAGCAAUAUUACGCGCU | -3.52 ± 0.28 | -2.34 ± 0.2
CUUAAGCAAUAUUACGGGUC | -4.47 ± 0.34 | -2.98 ± 0.23
CCGCAGCAAUAUUACGGUGA | -2.46 ± 0.084 | -0.784 ± 0.075
GGAGAGCAAUAUUACGGCCG | -3.74 ± 0.42 | -2.16 ± 0.42
AGUGAGCAAUAUUACGAAUU | -3.18 ± 0.37 | -2.56 ± 0.33
AACCAGCAAUAUUACGCUGA | -2.56 ± 0.1 | -1.51 ± 0.094
CCUGAGCAAUAUUACGACAU | -3.785 ± 0.027 | -2.87 ± 0.042
AUGAAGCAAUAUUACGCACC | -0.272 ± 0.097 | 0.751 ± 0.18
CCAUAGCAAUAUUACGCAGC |  | -3.34 ± 0.42
GGUGAGCAAUAUUACGGUCG | -1.29 ± 0.077 | -0.612 ± 0.1
CACGAGCAAUAUUACGAGAA |  | -1.61 ± 0.44

Sequence | self-splicing fitness (ln) (30 °C) | self-splicing fitness (ln) (37 °C)
GUACAGCAAUAUUACGAACU | -0.664 ± 0.15 | -1.24 ± 0.2
GUGCAGCAAUAUUACGCUCA | -1.31 ± 0.1 | -0.388 ± 0.11
GACUAGCAAUAUUACGCCUA | -0.114 ± 0.18 | -0.547 ± 0.15
CCAAAGCAAUAUUACGGAAA | -1.03 ± 0.26 | -3 ± 0.38
GGAAAGCAAUAUUACGCAAA | -2.42 ± 0.28 | -1.05 ± 0.25
UGCAAGCAAUAUUACGUAUG | -3.05 ± 0.16 | -0.321 ± 0.1
GUACAGCAAUAUUACGUAGU | -2.84 ± 0.11 | -2.08 ± 0.14
CUUAAGCAAUAUUACGCGCU | -3.35 ± 0.22 | -2.5 ± 0.27
CUAGAGCAAUAUUACGUUUA | -4.4 ± 0.24 | -0.83 ± 0.17
CUAAAGCAAUAUUACGUAGG | -1.15 ± 0.088 | -1.2 ± 0.11
AACUAGCAAUAUUACGAGAA | -2.64 ± 0.48 | -1.71 ± 0.22
UUAUAGCAAUAUUACGAUCU | -1.74 ± 0.32 | -1.17 ± 0.25
GGCUAGCAAUAUUACGUAUU | -0.862 ± 0.1 | -0.777 ± 0.12
CUUGAGCAAUAUUACGGGUC | -3.49 ± 0.19 | -2.97 ± 0.25
CGCGAGCAAUAUUACGGACC |  | -1.47 ± 0.31
AAUAAGCAAUAUUACGUGCA | -0.334 ± 0.062 | 0.0616 ± 0.079
UCCAAGCAAUAUUACGGUCC | -2.7 ± 0.37 | -1.04 ± 0.22
CCAGAGCAAUAUUACGCGAG | -2.77 ± 0.17 | -2.36 ± 0.25
AUGAAGCAAUAUUACGUGUA | -1.75 ± 0.082 | -0.686 ± 0.093
UGAAAGCAAUAUUACGACGA | -0.661 ± 0.12 | -0.101 ± 0.12
AAGUAGCAAUAUUACGAAUC | -2.13 ± 0.22 | -1.4 ± 0.25
GCGAAGCAAUAUUACGCGGU | -2.84 ± 0.29 | -1.65 ± 0.32
UGACAGCAAUAUUACGAGUG | -1.09 ± 0.054 | -0.833 ± 0.077
